From publication PMC4049585, “Identification and Characterization of a Ginsenoside-Transforming β-Glucosidase from Pseudonocardia sp. Gsoil 1536 and Its Application for Enhanced Production of Minor Ginsenoside Rg2(S)” (PLoS ONE, 2014) come the findings set out here.

Data set [1] concerns T1, CC(C)=CCC[C@](C)(O[C@@H]1O[C@H](CO)[C@@H](O)[C@H](O)[C@H]1O)[C@H]1CC[C@]2(C)[C@@H]1[C@H](O)C[C@@H]1[C@@]3(C)CC[C@H](O)C(C)(C)[C@@H]3[C@@H](O[C@@H]3O[C@H](CO)[C@@H](O)[C@H](O)[C@H]3O[C@@H]3O[C@@H](C)[C@H](O)[C@@H](O)[C@H]3O)C[C@]12C.
T1 construct: 743 residues, 78,975 Da predicted; GST fusion (pGEX 4T-1) from E. coli BL21(DE3), 105 kDa with GST; forward primer encodes IDPVDLTL after GS
The data set can be described thus: initial velocity, Re conversion, Cleland kinetics program. As to conditions: Re 0.2-5.0 mM; Re substrate lot purity 87.6%; temperature and buffer of kinetics not given. Format: biochemical, Pseudonocardia sp. Gsoil 1536. From the text:
initial velocity, Re conversion, Cleland kinetics program on BglPC28

Data set [2] relates to T2, O=[N+]([O-])c1ccc(O[C@@H]2O[C@H](CO)[C@@H](O)[C@H](O)[C@H]2O)cc1.
T2 construct: 743 residues, 78,975 Da predicted; GST fusion (pGEX 4T-1) from E. coli BL21(DE3), 105 kDa with GST; forward primer encodes IDPVDLTL after GS
The experiment in a line: purified protein. Format: biochemical, Pseudonocardia sp. Gsoil 1536. As to conditions: pNPG 1-20 mM, standard assay 50 mM sodium phosphate pH 7.0, 37°C.

What is called Km is the substrate concentration at which the rate is half of its maximum. As a reminder, the Vmax is the rate approached at saturating substrate. The kcat is the maximal rate divided by the concentration of active sites. Usually kcat/Km stands for the second-order rate constant that governs catalysis at low substrate concentration. With BglPC28 (Pseudonocardia sp. Gsoil1536), in data set [1], the Km was 1.42 ± 0.13 mM, the Vmax is 5.62 µmol/min/mg, the kcat turned out to be 7.4 ± 0.28 s⁻¹ and the kcat/Km came to 5280 ± 690 M⁻¹ s⁻¹. In addition, in data set [2], the Km worked out at 6.36 ± 1.10 mM, the Vmax is 40 µmol/min/mg, the kcat came out at 52.7 ± 3.4 s⁻¹ and the kcat/Km amounted to 8630 ± 2020 M⁻¹ s⁻¹.
